Laboratory results taken from publication PMC3702404 (Nature structural & molecular biology, 2013).
Where “and” joins values, the source holds several entries; their conditions need not be identical. Identical values can stand only once. Like-named read-outs stand apart in the source and are kept apart here.

B1: PpsR ΔHTH (domain or fragment, Rhodobacter sphaeroides)
chain: LAGGSLPSLAPDLVRDLIATAADISLLVSQEGVVREVMANPHHPSFGQLSEWEGRPLEEVLTAESVAKFRLRSEGLEPGRGSVAVELNHIDPRSFEFPIRYILHRLPADRSILMLGRDLRPIAEVQQQLVAAQLAMERDYETQREMETRYRVVLDVSRDPMVLVSMSTGRIVDLNSAAGLLLGGVRQDLLGAAIAQEFEGRRRGEFMETMTNLAATESAAPVEVLARRSQKRLLVVPRVFRAAGERLLLCQIDPADATQPVGDELSENLARLYHEGVDGIVFSDADGTIRGANEAFLNMTDSSSLAAIRGRSIADFLARGSVDLRVLIDSVRRTGQLRLYATRLTTDFAGQIAAEISATWLDDRERPLLVLVVRDTSR
B2: PpsR (full-length) (natural protein, Rhodobacter sphaeroides, UniProt Q3J179 1-464, looked up)
chain: MLAGGSLPSLAPDLVRDLIATAADISLLVSQEGVVREVMANPHHPSFGQLSEWEGRPLEEVLTAESVAKFRLRSEGLEPGRGSVAVELNHIDPRSFEFPIRYILHRLPADRSILMLGRDLRPIAEVQQQLVAAQLAMERDYETQREMETRYRVVLDVSRDPMVLVSMSTGRIVDLNSAAGLLLGGVRQDLLGAAIAQEFEGRRRGEFMETMTNLAATESAAPVEVLARRSQKRLLVVPRVFRAAGERLLLCQIDPADATQPVGDELSENLARLYHEGVDGIVFSDADGTIRGANEAFLNMTDSSSLAAIRGRSIADFLARGSVDLRVLIDSVRRTGQLRLYATRLTTDFAGQIAAEISATWLDDRERPLLVLVVRDTSRADTMRRPVPATGVIDEPARNVMELVGNSTLKDIVAETTDVVEKMCIETALELTRNNRVAAAEMLSLSRQSLYVKLRKFGLLNKDE
B3: AppA Δ399 C20S (domain or fragment, Rhodobacter sphaeroides)
chain: HDLEADVTMTGSDLVSCSYRSLAAPDLTLRDLLDIVETSQAHNARAQLTGALFYSQGVFFQWLEGRPAAVAEVMTHIQRDRRHSNVEILAEEPIAKRRFAGWHMQLSCSEADMRSLGLAESRQIVTVGRSLVADNTNIFSFDRIAAVRRFLSDVCAARTLAPDTPVEADTFALYALTEAQAGRSGRAKAVARLSDLLSTDPLGRLTEVEELLRAHAPTAADFARLFEACAERLTRALAEDRISRMQVTLAYSALQMALRRIHHLPDPQKSVGAVLVAGVPGHKPILEAALAAEMLRAVGWSTSVVHPESVAALAARLKTSRTSTLVVAPSLLEGTEQEADTLRFVSALRARTDLPGLSILVGGRLAQLPPSKLKDSGADAGFAHLALLPAALARVA

Tests used:
crystal structure = biological target: the molecule itself; assay: crystal structure
MST = biological target: the molecule itself; assay: MST
PpsR (full-length) [1] = biological target: B2; assay: MST
PpsR (full-length) [2] = biological target: B2; assay: native gel or EMSA
PpsR (full-length) [3] = biological target: B2; assay: native gel or EMSA; remark: listed apart in the source
PpsR (full-length) [4] = biological target: B2; assay: HDX-MS

With B1 the “stoichiometry N” value (crystal structure) was 4 and 8.

Binder B2 has a Kd (MST) of 900 nM.

With B3 the Kd (PpsR (full-length) [1]) was 1300 nM, the EC50 (PpsR (full-length) [2]) was 1400 nM and the EC50 (PpsR (full-length) [3]) was 2300 nM. It also gave a Kd (PpsR (full-length) [4]) of ~1500 nM.
